Here are results for three molecules from article PMC2925305 (Journal of Nucleic Acids, 2010).

Experiment [1] deals with SUMO-1-GST-TDG (SUMO-1-conjugated GST-TDG) (UniProt Q13569).
For experiment [2] the target is unchanged. In words: pull-down; GST pull-down: 10 nM GST or GST-fusion protein and 10 nM XPC-RAD23B with 20 ul glutathione-Sepharose in 100 ul binding buffer (20 mM sodium phosphate pH 7.4, 1 mM EDTA, 150 mM NaCl, 1 mM DTT, 5% glycerol, 0.01% Triton X-100, 100 ug/ml BSA), on ice 1 hour, eight washes, elution with 10 mM glutathione; immunoblot with anti-XPC and anti-GST. For orientation: In western blotting, separated proteins are transferred to a membrane and probed.

The target of experiment [3] is GST-TDG (thymine DNA glycosylase fused to glutathione S-transferase, nonmodified) (human, UniProt Q13569 1-410). The experiment can be described thus: cell-based or functional assay.
Experiment [4] deals with T1, GST-SMUG1 (GST-fused SMUG1) (UniProt Q53HV7 1-270).
T1 sequence (looked up): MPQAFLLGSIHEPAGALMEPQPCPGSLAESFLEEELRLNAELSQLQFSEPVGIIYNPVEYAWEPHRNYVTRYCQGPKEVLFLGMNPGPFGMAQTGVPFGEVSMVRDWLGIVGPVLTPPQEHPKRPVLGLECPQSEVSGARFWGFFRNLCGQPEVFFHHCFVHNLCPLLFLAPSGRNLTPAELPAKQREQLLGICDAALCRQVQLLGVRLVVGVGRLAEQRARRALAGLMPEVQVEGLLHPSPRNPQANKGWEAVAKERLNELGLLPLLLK
The experiment can be described thus: cell-based or functional assay.

Experiment [5] deals with T2, XPC (recombinant human XPC, alone) (human, UniProt Q01831 1-940).
T2 sequence (looked up): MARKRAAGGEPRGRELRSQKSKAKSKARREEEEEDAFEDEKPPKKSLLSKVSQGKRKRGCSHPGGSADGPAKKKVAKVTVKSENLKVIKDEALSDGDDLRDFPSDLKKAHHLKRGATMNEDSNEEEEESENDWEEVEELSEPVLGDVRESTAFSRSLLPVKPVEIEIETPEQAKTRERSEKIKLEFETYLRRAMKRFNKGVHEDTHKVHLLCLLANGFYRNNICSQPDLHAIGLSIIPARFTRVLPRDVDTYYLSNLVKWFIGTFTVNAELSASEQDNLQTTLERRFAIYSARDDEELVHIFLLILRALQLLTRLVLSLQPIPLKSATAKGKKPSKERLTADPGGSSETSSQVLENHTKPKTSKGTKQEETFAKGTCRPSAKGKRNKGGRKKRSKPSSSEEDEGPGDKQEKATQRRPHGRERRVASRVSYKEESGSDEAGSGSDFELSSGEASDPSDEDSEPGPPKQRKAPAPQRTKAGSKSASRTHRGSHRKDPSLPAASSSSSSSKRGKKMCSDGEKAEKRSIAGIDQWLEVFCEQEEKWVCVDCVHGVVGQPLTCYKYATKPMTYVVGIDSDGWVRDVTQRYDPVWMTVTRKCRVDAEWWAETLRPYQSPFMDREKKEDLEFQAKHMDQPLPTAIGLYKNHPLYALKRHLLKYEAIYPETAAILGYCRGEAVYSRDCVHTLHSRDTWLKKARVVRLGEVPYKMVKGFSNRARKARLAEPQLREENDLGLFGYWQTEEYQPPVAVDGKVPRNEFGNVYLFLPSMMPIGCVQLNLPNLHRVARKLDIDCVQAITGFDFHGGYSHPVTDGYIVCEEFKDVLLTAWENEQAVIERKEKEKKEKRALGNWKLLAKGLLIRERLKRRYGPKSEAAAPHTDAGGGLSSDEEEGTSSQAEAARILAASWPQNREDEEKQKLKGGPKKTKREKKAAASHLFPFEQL
The experiment can be described thus: in vitro reconstitution of the heterodimer; XPC-RAD23B-His heterodimer reconstituted in vitro from purified recombinant XPC and RAD23B-His, as described previously [17]. Conditions: both partners purified.

GST-TDG (thymine DNA glycosylase fused to glutathione S-transferase, nonmodified), sequence (Q13569 whole entry, the tested form may be a part): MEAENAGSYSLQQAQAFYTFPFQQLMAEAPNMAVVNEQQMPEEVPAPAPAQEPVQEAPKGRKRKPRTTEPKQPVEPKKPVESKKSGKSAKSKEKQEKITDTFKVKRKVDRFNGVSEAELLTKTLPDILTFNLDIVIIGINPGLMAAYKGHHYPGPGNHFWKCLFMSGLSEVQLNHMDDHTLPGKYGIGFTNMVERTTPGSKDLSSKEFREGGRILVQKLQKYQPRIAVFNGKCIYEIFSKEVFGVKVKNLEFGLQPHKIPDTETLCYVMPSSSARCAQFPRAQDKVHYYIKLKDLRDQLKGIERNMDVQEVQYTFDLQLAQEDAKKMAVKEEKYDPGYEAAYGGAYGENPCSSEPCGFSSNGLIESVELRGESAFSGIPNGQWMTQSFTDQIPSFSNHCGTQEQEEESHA

As for “XPC-RAD23B-His heterodimer (from UniProt Q01831 1-940; P54727 1-409) (complex)”, the stimulation by XPC-RAD23B (up to 4 nM, dose-dependent) of uracil excision from G/U mismatch DNA (1.6 nM) by 2 nM SUMO-1-conjugated His-TDG, nicking assay, 120 minutes in experiment [1] stood at 5 fold. In experiment [2], this molecule yielded a fold more XPC bound than to nonmodified GST-TDG of 2 fold.

B1: XPC-RAD23B-His heterodimer (complex, human)
chain 1: T2 sequence (looked up)
chain 2: MQVTLKTLQQQTFKIDIDPEETVKALKEKIESEKGKDAFPVAGQKLIYAGKILNDDTALKEYKIDEKNFVVVMVTKPKAVSTPAPATTQQSAPASTTAVTSSTTTTVAQAPTPVPALAPTSTPASITPASATASSEPAPASAAKQEKPAEKPAETPVATSPTATDSTSGDSSRSNLFEDATSALVTGQSYENMVTEIMSMGYEREQVIAALRASFNNPDRAVEYLLMGIPGDRESQAVVDPPQAASTGAPQSSAVAAAAATTTATTTTTSSGGHPLEFLRNQPQFQQMRQIIQQNPSLLPALLQQIGRENPQLLQQISQHQEHFIQMLNEPVQEAGGQGGGGGGGSGGIAEAGSGHMNYIQVTPQEKEAIERLKALGFPEGLVIQAYFACEKNENLAANFLLQQNFDED
With B1, the “stimulation by XPC-RAD23B (various concentrations) of uracil excision from a 60-bp G/U mismatch DNA (1.6 nM) by 0.42 nM His-TDG, nicking assay, 30°C” value in experiment [3] is 5 fold. In addition, the “stimulation by XPC-RAD23B (up to 2 nM, dose-dependent) of uracil excision from 60-bp G/U mismatch DNA (1.6 nM) by 2.5 pM SMUG1, nicking assay, 120 minutes” value in experiment [4] was determined as 4 fold.

B2: His-tagged RAD23B (RAD23B-His) (natural protein, human, UniProt P54727 1-409, looked up)
chain: B1 chain 2
Consider B2, for which, in experiment [5], the binding result is recorded as “binds”.
